Experiment in all cases: radioligand binding; whole-cell heterologous competition on transfected COS-7 cells: 1 nM 3H-Ang II tracer and increasing unlabeled SII Ang II, 3 h at 4°C; pKi calculated from Ang II KD values of experiments run in parallel
Settings in all cases: one partner purified

The target of test [1] is T1, FLAG-tagged rat AT1a receptor N298A, full length (rat, UniProt P25095 1-359, N298A).
T1 construct: Angiotensin II type 1a receptor (AT1aR), rat, full length; also called N298A (7.49); source: COS-7, transiently transfected, on whole cells; not shown: FLAG, N-terminal, kept
T1 sequence (looked up): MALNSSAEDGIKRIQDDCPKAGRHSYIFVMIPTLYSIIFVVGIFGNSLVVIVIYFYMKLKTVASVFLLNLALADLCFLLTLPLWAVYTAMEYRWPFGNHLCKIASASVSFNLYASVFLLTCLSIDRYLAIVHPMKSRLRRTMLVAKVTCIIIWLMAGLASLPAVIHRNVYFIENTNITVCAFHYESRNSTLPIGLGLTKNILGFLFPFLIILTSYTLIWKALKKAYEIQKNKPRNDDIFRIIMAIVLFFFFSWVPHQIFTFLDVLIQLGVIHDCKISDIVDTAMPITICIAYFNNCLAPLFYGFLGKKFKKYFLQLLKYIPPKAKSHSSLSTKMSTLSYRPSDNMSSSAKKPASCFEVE

Test [2] has as its target T2, FLAG-tagged rat AT1a receptor D74N, full length (rat, UniProt P25095 1-359, D74N).
T2 construct: Angiotensin II type 1a receptor (AT1aR), rat, full length; also called D74N (2.50); source: COS-7, transiently transfected, on whole cells; not shown: FLAG, N-terminal, kept
T2 sequence (looked up): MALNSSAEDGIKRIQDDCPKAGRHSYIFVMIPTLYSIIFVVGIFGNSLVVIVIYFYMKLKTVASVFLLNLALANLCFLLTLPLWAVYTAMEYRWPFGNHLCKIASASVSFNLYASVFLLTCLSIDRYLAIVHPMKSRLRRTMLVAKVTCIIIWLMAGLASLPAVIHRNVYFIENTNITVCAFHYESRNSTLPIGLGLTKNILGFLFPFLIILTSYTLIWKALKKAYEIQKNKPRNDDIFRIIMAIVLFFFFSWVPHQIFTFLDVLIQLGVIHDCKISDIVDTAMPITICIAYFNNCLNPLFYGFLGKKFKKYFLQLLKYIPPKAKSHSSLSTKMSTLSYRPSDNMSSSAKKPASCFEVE

For test [3], the target named is T3, FLAG-tagged rat AT1a receptor N298A truncated after serine 331 (N298A 331Δ) (rat, UniProt P25095 1-331, N298A).
T3 construct: source: COS-7, transiently transfected, on whole cells; not shown: FLAG, N-terminal, kept
T3 sequence (looked up): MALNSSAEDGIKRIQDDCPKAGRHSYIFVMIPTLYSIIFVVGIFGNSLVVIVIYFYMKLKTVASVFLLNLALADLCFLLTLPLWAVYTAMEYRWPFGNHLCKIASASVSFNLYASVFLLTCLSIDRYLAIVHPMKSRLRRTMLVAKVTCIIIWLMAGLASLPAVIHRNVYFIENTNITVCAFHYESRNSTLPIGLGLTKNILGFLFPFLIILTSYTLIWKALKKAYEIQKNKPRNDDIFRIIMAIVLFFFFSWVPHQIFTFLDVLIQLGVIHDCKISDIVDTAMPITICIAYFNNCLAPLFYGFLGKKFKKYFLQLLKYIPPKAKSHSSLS

Test [4] concerns the target T4, FLAG-tagged rat AT1a receptor D74N truncated after serine 331 (D74N 331Δ) (rat, UniProt P25095 1-331, D74N).
T4 construct: source: COS-7, transiently transfected, on whole cells; not shown: FLAG, N-terminal, kept
T4 sequence (looked up): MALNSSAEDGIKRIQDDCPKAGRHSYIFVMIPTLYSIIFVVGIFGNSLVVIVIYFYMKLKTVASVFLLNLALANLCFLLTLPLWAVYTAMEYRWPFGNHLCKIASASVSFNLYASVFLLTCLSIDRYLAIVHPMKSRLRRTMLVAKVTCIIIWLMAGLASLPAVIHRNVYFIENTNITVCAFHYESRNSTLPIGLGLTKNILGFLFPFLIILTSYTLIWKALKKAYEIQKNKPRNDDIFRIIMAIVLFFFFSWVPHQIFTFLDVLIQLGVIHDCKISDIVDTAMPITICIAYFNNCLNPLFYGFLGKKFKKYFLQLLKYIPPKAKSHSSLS

For the molecule GRVIIHPI (sarcosine at position 1 (Sar1)) [Sar1-Ile4-Ile8 (SII) Ang II], the pKi was 6.2 in test [1], 6.6 in test [2], 6.2 in test [3] and 6.8 in test [4].

The values are drawn from paper PMC2994726 (PLoS ONE, 2010).
